Numbering of substitutions follows the chain as printed.
B1: GST-MPK4 (mitogen-activated protein kinase 4) (enzyme, Arabidopsis thaliana, UniProt Q39024 1-376, looked up)
chain: MSAESCFGSSGDQSSSKGVATHGGSYVQYNVYGNLFEVSRKYVPPLRPIGRGAYGIVCAATNSETGEEVAIKKIGNAFDNIIDAKRTLREIKLLKHMDHENVIAVKDIIKPPQRENFNDVYIVYELMDTDLHQIIRSNQPLTDDHCRFFLYQLLRGLKYVHSANVLHRDLKPSNLLLNANCDLKLGDFGLARTKSETDFMTEYVVTRWYRAPELLLNCSEYTAAIDIWSVGCILGETMTREPLFPGKDYVHQLRLITELIGSPDDSSLGFLRSDNARRYVRQLPQYPRQNFAARFPNMSAGAVDLLEKMLVFDPSRRITVDEALCHPYLAPLHDINEEPVCVRPFNFDFEQPTLTEENIKELIYRETVKFNPQDSV
notes: MPK4, MAP kinase of Arabidopsis thaliana; UniProt Q39024 printed for the model; Expressed from pGEX-6P-1; source: E. coli, purified (glutathione Sepharose beads); not shown: GST, N-terminal, kept
B2: GST-MPK12 (mitogen-activated protein kinase 12) (enzyme, Arabidopsis thaliana, UniProt Q8GYQ5 1-372, looked up)
chain: MSGESSSGSTEHCIKVVPTHGGRYVQYNVYGQLFEVSRKYVPPIRPIGRGACGIVCAAVNSVTGEKVAIKKIGNAFDNIIDAKRTLREIKLLRHMDHENVITIKDIVRPPQRDIFNDVYIVYELMDTDLQRILRSNQTLTSDQCRFLVYQLLRGLKYVHSANILHRDLRPSNVLLNSKNELKIGDFGLARTTSDTDFMTEYVVTRWYRAPELLLNCSEYTAAIDIWSVGCILGEIMTGQPLFPGKDYVHQLRLITELVGSPDNSSLGFLRSDNARRYVRQLPRYPKQQFAARFPKMPTTAIDLLERMLVFDPNRRISVDEALGHAYLSPHHDVAKEPVCSTPFSFDFEHPSCTEEHIKELIYKESVKFNPDH
notes: MPK12, MAP kinase of Arabidopsis thaliana; UniProt Q8GYQ5 printed for the model; Expressed from pGEX-6P-1; source: E. coli, purified (glutathione Sepharose beads); not shown: GST, N-terminal, kept

Legend:
His-HT1-R173Q = target: T1, His-HT1-R173Q (Arabidopsis thaliana, UniProt Q2MHE4 1-390, R173Q); assay: pull-down; GST-MPK on glutathione Sepharose 4B beads, His-HT1 as prey; 5 ug of each protein in 200 ul of 50 mM tris-HCl pH 7.5, 150 mM NaCl, 0.1% Triton X-100, 1 mM DTT; 20 mM NaHCO3 or 20 mM NaCl (control) in all buffers including washes; room temperature; immunoblot with anti-GST and anti-His; conditions: both partners purified
T1 construct: HT1 protein kinase of Arabidopsis thaliana with R173Q (dominant allele from an EMS screen); As m1 with the point mutation; source: E. coli, purified (Ni resin beads); not shown: His tag, N-terminal, kept
T1 sequence (looked up): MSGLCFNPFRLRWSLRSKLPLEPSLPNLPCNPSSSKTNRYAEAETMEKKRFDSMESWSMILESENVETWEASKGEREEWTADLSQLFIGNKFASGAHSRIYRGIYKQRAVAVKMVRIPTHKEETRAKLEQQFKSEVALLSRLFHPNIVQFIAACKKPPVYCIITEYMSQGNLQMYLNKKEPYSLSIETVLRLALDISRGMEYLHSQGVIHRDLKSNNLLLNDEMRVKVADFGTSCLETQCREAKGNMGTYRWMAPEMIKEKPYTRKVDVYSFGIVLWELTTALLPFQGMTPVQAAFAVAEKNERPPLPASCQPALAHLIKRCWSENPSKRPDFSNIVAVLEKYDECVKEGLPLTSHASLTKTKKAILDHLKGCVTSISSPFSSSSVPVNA

[1] = target: T2, His-HT1 (high leaf temperature 1, Raf-like protein kinase), wild type (Arabidopsis thaliana, UniProt Q2MHE4 1-390); assay: as above; conditions: both partners purified
T2 construct: HT1 protein kinase of Arabidopsis thaliana; UniProt Q2MHE4 is printed as the 'long form of HT1' used for the AlphaFold2 model; Expressed from pET30a(+); source: E. coli, purified (Ni resin beads); not shown: His tag, N-terminal, kept
T2 sequence (looked up): T1 sequence (looked up) with Q173R

Binder	binding result (His-HT1-R173Q)	binding result [1]
B1	binds	binds
B2		binds

Source: publication PMC9728965, “Stomatal CO2/bicarbonate sensor consists of two interacting protein kinases, Raf-like HT1 and non-kinase-activity requiring MPK12/MPK4” (Science Advances, 2022)
